Laboratory results as given in patent US20230406950A1 (LYVGEN BIOPHARMA, published 2023).

Experiments:
[1] = target: T1, human CD137 expressed on cells (human, UniProt Q07011 24-255); assay: flow cytometry (FACS), MFI, CHO cells expressing human CD137
T1 construct: whole, on cells; also called 4-1BB; TNFRSF9
Procedure: (§1) Exemplary anti-PD-1/CD137 bi-specific antibodies were analyzed by FACS for their binding properties to human PD-1 and/or human CD137 expressed on CHO cells. Briefly, cultured cells were harvested, counted and cell viability was evaluated using the Trypan Blue exclusion method. Viable cells were then adjusted to 2×10⁶ cells per mL in PBS containing 2% BSA. 100 μL of this cell suspension were further aliquoted per well into a V-bottom 96-well plate. […] After incubation for 2 hours at 4° C., cells were centrifuged (3 min, 1000× g), washed with 250 μL/well BSA-containing FACS Stain Buffer, resuspended and incubated for an additional 1 hour at 4° C. with 100 μL/well fluorochrome-conjugated anti-IgG antibody for detection of the bisepecific antibody. Cells were then washed with 250 μL/well BSA-containing FACS Stain Buffer, resuspended in 100 μL/well FACS Stain Buffer, acquired and analyzed using a FACS machine. Binding of the bispecific antibodies to human PD-1 or human CD137 expressing CHO cells were evaluated and the mean fluorescence intensity is plotted in histograms or dot plots.

[2] = target: T2, human PD-1 expressed on cells (human, UniProt Q15116 25-288); assay: flow cytometry (FACS), MFI, CHO cells expressing human PD-1
T2 construct: whole, on cells; also called human PD-1 over-expressed on the CHO cells; Jurkat/NFkB-Luci/PD-1 cells
T2 sequence (Q15116 25-288): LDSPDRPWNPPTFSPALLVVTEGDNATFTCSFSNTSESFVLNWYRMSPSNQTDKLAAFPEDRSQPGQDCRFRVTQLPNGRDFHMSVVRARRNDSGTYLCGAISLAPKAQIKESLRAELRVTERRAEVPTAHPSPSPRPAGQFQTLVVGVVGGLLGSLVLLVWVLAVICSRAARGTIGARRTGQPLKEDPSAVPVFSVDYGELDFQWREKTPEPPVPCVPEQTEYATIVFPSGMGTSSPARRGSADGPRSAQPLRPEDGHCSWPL
Procedure: as §1

[3] = target: T3, human CD137 ECD protein (His tag) (human, UniProt Q07011 24-186); assay: bridging ELISA: human CD137 ECD (His tag) coated, antibody titrated, then human PD-1 ECD (mouse IgG2a Fc tag), HRP anti-mouse IgG2a Fc; A450-A620
T3 construct: extracellular domain; also called recombinant human CD137; not shown: His tag
Procedure: Exemplary anti-PD-1/CD137 bi-specific antibodies were analyzed by ELISA for their simultaneous binding to recombinant human PD-1 and human CD137. Briefly, human CD137 ECD protein (His tag) was diluted and coated onto an ELISA plate with a volume of 100 μL/well by incubation at 4° C. overnight. The next day, the plate was blocked with PBST-BSA buffer, then serially diluted samples of anti-PD-1/CD137 bi-specific antibodies were pipetted into appropriate wells at 50 μL/well, and the plate was incubated for 1 hour followed by washing. The extracellular domain (ECD) of human PD-1 protein (mouse IgG2a Fc tag) was added into the plate at 50 μL/well. After 1-hour incubation at room temperature, HRP-conjugated anti-Mouse IgG, Fc G2a specific antibody was added into the plate at 100 μL/well. The plate was incubated for 1 hour at room temperature followed by washing. TMB substrate solution was added at 100 μL/well and the color development was stopped by adding 100 uL/well Stop Solution (2N H₂SO₄). Absorbance at 450 nm and 620 nm was read by Tecan F200 Pro plate reader. GraphPad 7.0, “[Agonist] vs. response—Variable slope (four parameters)” was used to plot the binding data and calculate binding EC50 values.

T1 sequence (Q07011 24-255): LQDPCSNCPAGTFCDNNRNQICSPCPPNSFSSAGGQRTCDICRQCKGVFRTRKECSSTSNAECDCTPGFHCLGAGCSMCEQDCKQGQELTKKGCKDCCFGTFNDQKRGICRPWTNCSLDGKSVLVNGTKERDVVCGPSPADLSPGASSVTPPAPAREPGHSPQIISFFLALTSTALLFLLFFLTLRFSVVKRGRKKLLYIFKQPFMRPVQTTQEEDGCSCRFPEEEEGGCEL

EC50 (read off the curve) [1] | EC50 (read off the curve) [2] | EC50 (read off the curve) [3] | Binder
~0.2 µg/mL | ~0.2 µg/mL | ~0.02 µg/mL | Ly457 (bispecific antibody, human IgG1, kappa, Anti-PD-1/CD137: Ly516 heavy chain fused to Ly1630 scFv (VH-VL); Ly516 light chain) heavy: QVTLKESGPALVKPTQTLTLTCTFSGFSLSTSGTCVSWIRQPPGKALEWLATICWEDSKGYNPSLKSRLTISKDTSKNQAVLTMTNMDPVDTATYYCARREDSGYFWFPYWGQGTLVTVSSASTKGPSVFPLAPSSKSTSGGTAALGCLVKDYFPEPVTVSWNSGALTSGVHTFPAVLQSSGLYSLSSVVTVPSSSLGTQTYICNVNHKPSNTKVDKKVEPKSCDKTHTCPPCPAPELLGPSVFLFPPKPKDTLMISRTPEVTCVVVDVSHEDPEVKFNWYVDGVEVHNAKTKPREEQYNSTYRVVSVLTVLHQDWLNGKEYKCKVSNKALPAPIEKTISKAKGQPREPQVYTLPPSREEMTKNQVSLTCLVKGFYPSDIAVEWESNGQPENNYKTTPPVLDSDGSFFLYSKLTVDKSRWQQGNVFSCSVMHEALHNHYTQKSLSLSPGGGGGSGGGGSGGGGSGGGGSQVQLVQSGAEVKKPGASVKVSCKASGYTFAGFEMHWVRQAPGQGLEWMGAIDPKTGGTDYNQKFKDRVTMTRDTSISTAYMELSRLRSDDTAVYYCARDLGYFDVWGQGTLVTVSSGGGGSGGGGSGGGGSGGGGSDIQMTQSPSSLSASVGDRVTITCRASQDIRSNLNWYQQKPGGAVKLLIYYTSRLHSGVPSRFSGSGSGTDYTLTISSLQPEDFATYFCQQSEKLPRTFGGGTKVEIR light: NIQMTQSPSSLSASVGDRVTITCKAGQNVNNYLAWYQQKPGKAPKVLIFNANSLQTGVPSRFSGSGSGTDFTLTISSLQPEDFATYYCQQYNSWPTFGGGTKVEIKRTVAAPSVFIFPPSDEQLKSGTASVVCLLNNFYPREAKVQWKVDNALQSGNSQESVTEQDSKDSTYSLSSTLTLSKADYEKHKVYACEVTHQGLSSPVTKSFNRGEC
~0.2 µg/mL | ~0.2 µg/mL | ~0.02 µg/mL | Ly458 (bispecific antibody, human IgG1, kappa, Anti-PD-1/CD137: Ly516 heavy chain; Ly516 light chain fused to Ly1630 scFv (VL-VH)) heavy: QVTLKESGPALVKPTQTLTLTCTFSGFSLSTSGTCVSWIRQPPGKALEWLATICWEDSKGYNPSLKSRLTISKDTSKNQAVLTMTNMDPVDTATYYCARREDSGYFWFPYWGQGTLVTVSSASTKGPSVFPLAPSSKSTSGGTAALGCLVKDYFPEPVTVSWNSGALTSGVHTFPAVLQSSGLYSLSSVVTVPSSSLGTQTYICNVNHKPSNTKVDKKVEPKSCDKTHTCPPCPAPELLGPSVFLFPPKPKDTLMISRTPEVTCVVVDVSHEDPEVKFNWYVDGVEVHNAKTKPREEQYNSTYRVVSVLTVLHQDWLNGKEYKCKVSNKALPAPIEKTISKAKGQPREPQVYTLPPSREEMTKNQVSLTCLVKGFYPSDIAVEWESNGQPENNYKTTPPVLDSDGSFFLYSKLTVDKSRWQQGNVFSCSVMHEALHNHYTQKSLSLSPGK light: NIQMTQSPSSLSASVGDRVTITCKAGQNVNNYLAWYQQKPGKAPKVLIFNANSLQTGVPSRFSGSGSGTDFTLTISSLQPEDFATYYCQQYNSWPTFGGGTKVEIKRTVAAPSVFIFPPSDEQLKSGTASVVCLLNNFYPREAKVQWKVDNALQSGNSQESVTEQDSKDSTYSLSSTLTLSKADYEKHKVYACEVTHQGLSSPVTKSFNRGECGGGGSGGGGSGGGGSGGGGSDIQMTQSPSSLSASVGDRVTITCRASQDIRSNLNWYQQKPGGAVKLLIYYTSRLHSGVPSRFSGSGSGTDYTLTISSLQPEDFATYFCQQSEKLPRTFGGGTKVEIRGGGGSGGGGSGGGGSGGGGSQVQLVQSGAEVKKPGASVKVSCKASGYTFAGFEMHWVRQAPGQGLEWMGAIDPKTGGTDYNQKFKDRVTMTRDTSISTAYMELSRLRSDDTAVYYCARDLGYFDVWGQGTLVTVSS
~0.2 µg/mL | ~0.1 µg/mL | ~0.03 µg/mL | Ly513 (bispecific antibody, human IgG2, kappa, Anti-PD-1/CD137: Ly516 heavy chain; Ly516 light chain fused to Ly1630 scFv (VH-VL)) heavy: QVTLKESGPALVKPTQTLTLTCTFSGFSLSTSGTCVSWIRQPPGKALEWLATICWEDSKGYNPSLKSRLTISKDTSKNQAVLTMTNMDPVDTATYYCARREDSGYFWFPYWGQGTLVTVSSASTKGPSVFPLAPCSRSTSESTAALGCLVKDYFPEPVTVSWNSGALTSGVHTFPAVLQSSGLYSLSSVVTVPSSNFGTQTYTCNVDHKPSNTKVDKTVERKCCVECPPCPAPPVAPSVFLFPPKPKDTLMISRTPEVTCVVVDVSHEDPEVQFNWYVDGVEVHNAKTKPREEQFNSTFRVVSVLTVVHQDWLNGKEYKCKVSNKGLPAPIEKTISKTKGQPREPQVYTLPPSREEMTKNQVSLTCLVKGFYPSDIAVEWESNGQPENNYKTTPPMLDSDGSFFLYSKLTVDKSRWQQGNVFSCSVMHEALHNHYTQKSLSLSPGK light: NIQMTQSPSSLSASVGDRVTITCKAGQNVNNYLAWYQQKPGKAPKVLIFNANSLQTGVPSRFSGSGSGTDFTLTISSLQPEDFATYYCQQYNSWPTFGGGTKVEIKRTVAAPSVFIFPPSDEQLKSGTASVVCLLNNFYPREAKVQWKVDNALQSGNSQESVTEQDSKDSTYSLSSTLTLSKADYEKHKVYACEVTHQGLSSPVTKSFNRGECGGGGSGGGGSGGGGSGGGGSQVQLVQSGAEVKKPGASVKVSCKASGYTFAGFEMHWVRQAPGQGLEWMGAIDPKTGGTDYNQKFKDRVTMTRDTSISTAYMELSRLRSDDTAVYYCARDLGYFDVWGQGTLVTVSSGGGGSGGGGSGGGGSGGGGSDIQMTQSPSSLSASVGDRVTITCRASQDIRSNLNWYQQKPGGAVKLLIYYTSRLHSGVPSRFSGSGSGTDYTLTISSLQPEDFATYFCQQSEKLPRTFGGGTKVEIR
~0.2 µg/mL | ~0.2 µg/mL | ~0.02 µg/mL | Ly459 (bispecific antibody, human IgG1, kappa, Anti-PD-1/CD137: Ly516 heavy chain; Ly516 light chain fused to Ly1630 scFv (VH-VL)) heavy: QVTLKESGPALVKPTQTLTLTCTFSGFSLSTSGTCVSWIRQPPGKALEWLATICWEDSKGYNPSLKSRLTISKDTSKNQAVLTMTNMDPVDTATYYCARREDSGYFWFPYWGQGTLVTVSSASTKGPSVFPLAPSSKSTSGGTAALGCLVKDYFPEPVTVSWNSGALTSGVHTFPAVLQSSGLYSLSSVVTVPSSSLGTQTYICNVNHKPSNTKVDKKVEPKSCDKTHTCPPCPAPELLGPSVFLFPPKPKDTLMISRTPEVTCVVVDVSHEDPEVKFNWYVDGVEVHNAKTKPREEQYNSTYRVVSVLTVLHQDWLNGKEYKCKVSNKALPAPIEKTISKAKGQPREPQVYTLPPSREEMTKNQVSLTCLVKGFYPSDIAVEWESNGQPENNYKTTPPVLDSDGSFFLYSKLTVDKSRWQQGNVFSCSVMHEALHNHYTQKSLSLSPGK light: NIQMTQSPSSLSASVGDRVTITCKAGQNVNNYLAWYQQKPGKAPKVLIFNANSLQTGVPSRFSGSGSGTDFTLTISSLQPEDFATYYCQQYNSWPTFGGGTKVEIKRTVAAPSVFIFPPSDEQLKSGTASVVCLLNNFYPREAKVQWKVDNALQSGNSQESVTEQDSKDSTYSLSSTLTLSKADYEKHKVYACEVTHQGLSSPVTKSFNRGECGGGGSGGGGSGGGGSGGGGSQVQLVQSGAEVKKPGASVKVSCKASGYTFAGFEMHWVRQAPGQGLEWMGAIDPKTGGTDYNQKFKDRVTMTRDTSISTAYMELSRLRSDDTAVYYCARDLGYFDVWGQGTLVTVSSGGGGSGGGGSGGGGSGGGGSDIQMTQSPSSLSASVGDRVTITCRASQDIRSNLNWYQQKPGGAVKLLIYYTSRLHSGVPSRFSGSGSGTDYTLTISSLQPEDFATYFCQQSEKLPRTFGGGTKVEIR
